Experiment: yeast display, Sf9 membrane polyspecificity reagent, FACS + sequencing; frameworks hold sequencing errors
Procedure, shortened: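 Synthetic nanobody libraries on Saccharomyces cerevisiae BJ5465 were galactose-induced for 36–48 hours, stained 1 hour at 4 °C with 10% biotinylated, detergent-solubilized Sf9 membrane reagent and enriched on streptavidin microbeads. FACS then separated cells into low and high (top ~1%) gates by anti-HA (expression) and streptavidin (reagent binding) fluorescence. Genes were colony-PCR amplified, MiSeq 2 × 250 sequenced and CDR-length filtered. A clone's polyreactivity label is that of its gate of origin.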

Sequence	polyreactivity (PSR sort gate)
QVQLVESGGGLVQAGGSLRLSCAASGSTFGANAKGWYRQAPGKARALVAAITWSGGSTYYADSVKGRFTISRDNAKNTVFLQMNSLKPEDTAVSYCNAVARWYVLQVYEYDYWGQGTQVTVSS	low polyreactivity
QVQLVESGGGLVQAGGSLRLSCAASGFIFGSNVMGWYRQAPGKERELVAAISRSGGSTYYADSVKGRFTISRDNAKNTVYLQMNSLKPEDTAVYYCNKLAVGRSRTGDYWGQGTQVTVSS	high polyreactivity
QVQLVESGGGLVQAGGSLRLSCAASGRTLHYYAMGWYRQAPGKERELVAAISRTGSTDYADSVKGRFTISRDNAKNTVYLQMNSLKPEDTAVYYCAAYYRYRSGRYYYWGQGTQVTVSS	high polyreactivity
QVQLVESGGGLVQAGGSLRLSCAASGRTFRYYTMGWYRQAPGKERELVAAISRGGRTYYADSVKGRFTISRDNGKNTVYLQMNSLKPEDTAVYNCAAQLFREYYYWGHGTQVTVSS	high polyreactivity
QVQLVESGGGLVQAGGSLRVSCAASGINFDYYVMGWYRQAPGKERELVAAISRSGDRTNYADSVKGRFTSSRDHEKYTVFLLMNSLKPEDTAVYYCAARVRIRGGGYDYWGQGTQVTVSS	high polyreactivity
QVQLVESGGGLVQAGGSLRLSCAASGSIFRVYAMGWYRQAPGKERELVASMSSDGSTYYADSVKGRFTISRDNAKNTVYLQMNSLKPEDTAVYYEYDWGQGTQVTVSS	low polyreactivity
QVQLVESGGGLVQAGGSLRLSCAASGSIFFRNAMGWYRQAPGKERELVASITSGGSTYYADSVKGRFTISRDNAKNTVYLLMNSLKPEDTAVFYCAARLWHLSYAGQGGDYWGQGTQVTVSS	low polyreactivity
QVQLVESGGGLVQAGGSLRLSCAASGRTFSLYAMGWYRQAPGKERELVAAITLSAGSTYYADSVKGRFTISRDNAKNTVYLQMNSLKPEDTAVYYCNAAAYVWKSKQLLYVITYDYWGQGTQVTVSS	high polyreactivity
QVQLEESGGGLVQAGGSLRLSCAASGSIIRYNAMGWYRQAPGKERELVAAISASGGRTHYADSVKGRFTISRDNAKNTVYLQMNSLKPEYTAVYYCAASTYRVTSLYGYWGQGTQVTVSS	high polyreactivity
QVQLVESGGGLVQAGGSLRLSCAASGRIYPKNTMGWYRQERGKERELVAAINWNGGRTYYADSEKGRFTISRDNAKNTVYLPMNSLKPEYTAVYYCAKDGYWDFDYWGQGTQVTVSS	low polyreactivity
QVQLVESGGGLVQEGGSLRLSCAASGSTFRFYAMGWYRQAPGKERELVAVISFNDGSTYYADSVTGRFTISRDNAKNTVYLQMNSLKPEDSAVYSCATDELDSWWNEYEYWGQGTQVTVSS	low polyreactivity
QVQLVESGGGLVQAGGSLRLSCAASGRTFQQNAMGWYRQAPGKERELVAAINSRGGRTYYADSVKGRFTISRDYAKNTVYLQMNSLKPEDTAVYYCAARYYWGQGTQVTVSS	high polyreactivity
QVQLVESGGGLVQAGGSLRLSCAASGIWNMGWYRQAPGKERELVAAISWSGASTYYADSVKGRFTISRDNAKNTVYLQMNSLKPEDTAVYYCALGFWHTYGYWGQGTQVTVSS	high polyreactivity
QVQLVESGGGLVQAGVSLRLSCAASGSIFRYYAMGWYRQAPGKERELVAAITVGGSTYYADSVKGRFTISRDNAKNTVYLQMNSLKPEDTAVYYCAADGDKRTKGYDYWGQGTQVTVSS	high polyreactivity
QVQLVESGGGLVQAGGSLRLSCAASGRIFAPYAMGWYTQAPGKERELVAAISFSGGSTHYADSVKGRFTISRDNAKNTVYLQMNSLKPEDTAVYYCAAGWRSRLYRFGYWGQGTQVTVSS	high polyreactivity
QVQLVESGGGLVQAGGRLRLSCAASGRTFRPYALGWYRQPPVKERELVAAIDSSGTSTYYADSVKGRFTISRDNAKNTVYLQMNSLKPEDTAVYDCAQASPDHWYSRYDYWGQGTQVTVSS	low polyreactivity
QVQLVESGGGLVQAGGSLRLSCAASGRTFGRNAMGWYRQAPGKVRELVAAINSDGSTYYADSVKGRFTISRDNAKNTVYLQMNSLKPEDTAVYYCAADTWVWTDYFRRFEYWGQGTQVTVSS	high polyreactivity
KLQLVESGGGLDQAGGSLRLSCAASGSIFVAYAMGSYRQAPGKERELVAAISKSGGSKYYADSVKGRFTISRDNAKNTVFLQMNSLKPEDTAVYYCAAGSDDFSRFGYWGQGTQVTVSS	low polyreactivity
QVQLVESGGGLVQAGGSLRLSSAASGRIFRWYAMGWYRQAPGKERELVATISSTGGSTYYADSVKGRFTISRDNAKNTVYLQMNSLKPEDTAVYYSNAVVYGIFLYAWYDYWGQGTQVTVSS	low polyreactivity
QVQLVESGGGLFQAGGSLRLSCAASGSIFDSYAMGWYRQAPGKDREVVAAISSDCGSTYYADSVKGRFTISRDNAKNTVYLQMNSLKPEDTAVYFCAVEDYSSPYDFDSWGQGTQVTVSS	low polyreactivity
QVQLVESGGGLVQAGGSLRLSCADSGSIFGINTMGWYRQAPGKERELVAAITFGGGSTYYADSVKGRFTISRDNAKNTVYLQMNSLKPEDTAVYYCNRLGVYWVGTEFDYWGQGTQVTVSS	low polyreactivity
QVQLVESGGGLVQAGGSLRLSCAASGSTFDYNTMGWYRQAPGKERELVAAISESGGSTYYADSVKGRFTISRDNAKNTVYLQMNSLKPEDTAVSYCATDDFGGYFGEYDYWGQGTQVTVSS	low polyreactivity

Sequence	polyreactivity (PSR sort gate)
QVQLVESGGGLVQAGGSLRLSCAASGIIFAQYAMGWYRQAPGKERELVAAISWSGGSTYYADSVKGRFTISRDNAKNTVYLQMNSLKPEDTAVYYCAADGYYGYYSQYEYLYYYWGQGTQVTVSS	high polyreactivity
QVQLVESGGGLVQAGGSLRLSCAASGSTFGINAMGWYRQAPGKERELVAAIDASGGTTYFADSVKGRFTISRDNAKNTVYLQMNSLKPEDTAVYYCAADDNYYTFGYWGQGTQVTVSS	high polyreactivity
QVQLVESGGGLVNAGGSLRLSCAASGRITGDNAMVWYRQAPGKVRELVAAISTSRRTYYADSVKGRFTISRDNAKNTVYLQMNSLKPEDTAVYYCNAFGSNGGAMDYWGQGTQLTVSS	high polyreactivity
QVQLVESGGGLVQAGGILRLSCAASGFIFSSNAMGWYRQAPGKERELVAAITSSGGGTYYADSVKGRFTISRDNAKNTVYLQMNSLKPEDTAVYYCNAAYKYAIPSYGYWGQGTQVTVSS	low polyreactivity
QVQLVESGGGLVQAGGSLRLSCAASGRTFYYNTMGWYRQAPGKERELVAAITRGGSTYYADSVKGRFTISRVNAKNTVYLQMNSLKPEETAVYYCNAPRYLRRYVKDHDYWGEGTQVTVSS	high polyreactivity
QVQLVESGGGLVQAGVSLRLSCAASGSTFTTNVMGWYIQAPGKERELVAAISWSSGSTYYADSVKGRFTISRDNAKNTVYLQMNSLKPEDTAVYYCAARLVIFYPYSRYYYWGQGTQVTVSS	high polyreactivity
QVQLVESGGGLVQAGGSLRLSCAASGRTFYAYGMGWYRQAPGKERELVARISSSTGRTYYADSVKGRFTISRDNAKNTVYLQMNSLKPEDTAVYYCAALFYGYRGGGYGGPAAGDYWGQGTQVTVSS	high polyreactivity
QVKLVESGGGLVQAGGSLRLSCADSGSIFWTYAIVWYRHAPGKERELVAAINSSDGTYYADSVKGRFTISRDNAKNTVYLQMNSLKPEDTAVYYCNADRDALFGYDYDYWGQGTQVTVSS	low polyreactivity
QDQHVESGGGLVQAGGRLRLICAASGGNFTKNAMGWYRQAPGKERELVAGISRTGGNTYYADSVKGRFTISRDNAKNTVYLQMNSLKPDDTAVYYCNALYGGPHRLRYDYWGQGTQVTVSS	low polyreactivity
QVQLVESGGGLVQAGGSLRLSCAASGYTFKRYAMGWYRQPPGKERELVAAITSRGGNTYYADSVKGRFTISRDNAKNTVYLQMNSLKPEDTAVYYCAVGGWSAYHLSQMYYWGQGTQVTVSS	high polyreactivity
QVQLVESGGGLVQAGGSLRLSCAASGFTFRRYAMGWYRQAPGKERELVAVITSTDSTYYADSVKGRFTISRDNAKNTVYFQMYSLKPEDTAVYYCARVYLGPRYAVFIYGYWGQGTQVTVSS	high polyreactivity
QVQLVESARGLVQAGGSLRLSCAASGYTIRANAMGWYRQAPGKEREFVAAISRSGGSTYYADSVKGRFTISRDNAKNTVYLQMNCLKPEDTAVYYCNNLYPYYATHTTRGLDYWGQGTQVTVSS	high polyreactivity
QVQLVESGGGLVQAGGSLRLSCAASGSIFYPYAMGWYRQAPGKEREFVAVISKGGTNTYYADSVKGRFTISRDNAKNTVYLQMNSLKPEDTAVYYCAARVDTYRAKYYYWGQGTQVTVSS	high polyreactivity
QVQLVESGGGLVQAGGSLRLSCAASGSIFTLYDMGWYRQAPGKERELVAAITSGGSTDYADTVKGRFTISRDNAKNTVYLQMNSLKPEDTAVYYCNAESFTYWYRGASREYDYWGQGTQVTVSS	low polyreactivity
QVQLVESGGGLVQAGGSLRLSCAASGFTFFKYAMGGYRQAPGKERELVAAITRNGGRTYYADSVKGRFTISRDNAKNTVYLHMNSLKPEDTAVYYCNAASVNGGRDFDYWGQGTQVTVSS	high polyreactivity
QVQLVESGGGLVQAGGSLRLSCAASGRIFDVYAMGWYRQAPGKERELVATITGSGGGTYYADSVKGRFTISRDNAKNTVYLQMNSLKPEDSEVYYCASYYYPNYAYYVSNVVYDYWVQGTQVTVSS	low polyreactivity
QVQLVESGGGLVQAGGSLRLSCAASGRTFGEYAMGWYRQAPGKERELVADITNGSRTYYADSVKGRFTISRDNAKNTVYLQMNSLKPEDTAVYYCAADWWKEVDYWGQGTQVTVSS	low polyreactivity
QVQLVESGGGLVHAGGSLRLSCAASGSTFARYAMGWYRPAPGKERELVAVIRSGGSTNYADSVKGRFTISRDNAKNTVYLQMNSLKPEDTAGAADQWTIHRWATYGYWGQGTQVTVSS	low polyreactivity
QVQLVESGGGLVQAGGSLRLSCAASGRIFVRNAMGWYRQAPGKEREFVAAISRSGGSTYYADSVKGRFTISRDNAKNTVYLQMNSLKPEDTAVYYCAADYPKTYTSKFNYWGQGTQVTVSS	high polyreactivity
QVQLVESGGGLVQAGGSLRLSCAASGSIFKSYAMGWYRHAPWKERELVASISSRGSSTNYADSVKGRFTISRDNAKITVYLQMNSLKPEDTEGYYCAAEVYRGKYWSTYRGGDYWGQGTQVTVSS	high polyreactivity
QDQLVESGGGLDQAGGSLRLSCAASGSTFPGYAMGWYRQAPGKERELVASIYTGGSTYYADSVKGRFTISRDNAKNTVYLQMNSLKPEDTAVYYCAADSYNVSSLLYYWGQGTQVTVSS	low polyreactivity

Source: the nanobody polyreactivity screen of Harvey et al. (2022)
